Patent publication US20250066503A1, “CELL INJURY INDUCING THERAPEUTIC DRUG FOR USE IN CANCER THERAPY” (CHUGAI SEIYAKU KABUSHIKI KAISHA, priority 2016, published 2025)

Target: T1, soluble human CD3 epsilon chain (human, UniProt P07766 23-126)
T1 construct: also called CD3ε
Assay: SPR

T1 sequence (P07766 23-126 limits assumed): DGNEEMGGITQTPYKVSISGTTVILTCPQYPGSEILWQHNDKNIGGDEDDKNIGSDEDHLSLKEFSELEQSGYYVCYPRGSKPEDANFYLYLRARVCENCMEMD

Binder | Kd
TR01H074-E22Hh/none-Hi-Kn010G3/L0000-k0 (antibody, V domains shown, one-arm) VH: QVQLVESGGGVVQPGGSLRLSCAASGFTFSNAWMHWVRQAPGKGLEWVAQIKDKSQNYATYYAESVKGRFTISRADSKNSIYLQMNSLKTEDTAVYYCRYVHYAASYGVDIWGQGTTVTVSS VL: DIVMTQSPLSLPVTPGEPASISCRSSQSLVHSNRNTYLHWYQQKPGQAPRLLIYKVSNRFSGVPDRFSGSGSGTDFTLKISRVEAEDVGVYYCGQGTQVPYTFGQGTKLEIKR | 29.1 nM
TR01H082-E22Hh/none-Hi-Kn010G3/L0203-k0 (antibody, V domains shown, one-arm) VH: QVQLVESGGGLVQPGRSLRLSCAASGFTFSNAWMHWVRQAPGKGLEWVAQIKDKSQNYATYYAESVKGRFTISRDDSKNSLYLQMNSLKTEDTAVYYCRYVHYAAGYGVDAWGQGTTVTVSS VL: DIVMTQSPLSLPVTPGEPASISCRSSQSPVHSNRNTYIHWYQQKPGQAPRLLIYKVSNRFSGVPDRFSGSGSGTDFTLKISRVEAEDVGVYYCGQGTQVPYTFGQGTKLEIKR | 40.7 nM
TR01H075-E22Hh/none-Hi-Kn010G3/L0000-k0 (antibody, V domains shown, one-arm) VH: QVQLVESGGGLVQPGRSLRLSCAASGFTFSNAWMHWVRQAPGKGLEWVAQIKDKSQNYATYYAESVKGRFTISRDDSKNSLYLQMNSLKTEDTAVYYCRYVHYAASYGVDYWGQGTTVTVSS VL: DIVMTQSPLSLPVTPGEPASISCRSSQSLVHSNRNTYLHWYQQKPGQAPRLLIYKVSNRFSGVPDRFSGSGSGTDFTLKISRVEAEDVGVYYCGQGTQVPYTFGQGTKLEIKR | 98.8 nM
TR01H082-E22Hh/none-Hi-Kn010G3/L0011-k0 (antibody, V domains shown, one-arm) VH: QVQLVESGGGLVQPGRSLRLSCAASGFTFSNAWMHWVRQAPGKGLEWVAQIKDKSQNYATYYAESVKGRFTISRDDSKNSLYLQMNSLKTEDTAVYYCRYVHYAAGYGVDAWGQGTTVTVSS VL: DIVMTQSPLSLPVTPGEPASISCRSSQPLVHSNRNTYLHWYQQKPGQAPRLLIYKVSNRFSGVPDRFSGSGSGTDFTLKISRVEAEDVGVYYCGQGTQVPYTFGQGTKLEIKR | 59.5 nM
TR01H081-E22Hh/none-Hi-Kn010G3/L0000-k0 (antibody, V domains shown, one-arm) VH: QVQLVESGGGLVQPGRSLRLSCAASGFTFSNAWMHWVRQAPGKGLEWVAQIKDKSQNYATYYAESVKGRFTISRADSKNSIYLQMNSLKTEDTAVYYCRYVHYAAGYGVDIWGQGTTVTVSS VL: DIVMTQSPLSLPVTPGEPASISCRSSQSLVHSNRNTYLHWYQQKPGQAPRLLIYKVSNRFSGVPDRFSGSGSGTDFTLKISRVEAEDVGVYYCGQGTQVPYTFGQGTKLEIKR | 15.6 nM
TR01H082-E22Hh/none-Hi-Kn010G3/L0201-k0 (antibody, V domains shown, one-arm) VH: QVQLVESGGGLVQPGRSLRLSCAASGFTFSNAWMHWVRQAPGKGLEWVAQIKDKSQNYATYYAESVKGRFTISRDDSKNSLYLQMNSLKTEDTAVYYCRYVHYAAGYGVDAWGQGTTVTVSS VL: DIVMTQSPLSLPVTPGEPASISCRSSQPPVHSNRNTYLHWYQQKPGQAPRLLIYKVSNRFSGVPDRFSGSGSGTDFTLKISRVEAEDVGVYYCGQGTQVPYTFGQGTKLEIKR | 44.9 nM
TR01H081-E22Hh/none-Hi-Kn010G3/L0201-k0 (antibody, V domains shown, one-arm) VH: QVQLVESGGGLVQPGRSLRLSCAASGFTFSNAWMHWVRQAPGKGLEWVAQIKDKSQNYATYYAESVKGRFTISRADSKNSIYLQMNSLKTEDTAVYYCRYVHYAAGYGVDIWGQGTTVTVSS VL: DIVMTQSPLSLPVTPGEPASISCRSSQPPVHSNRNTYLHWYQQKPGQAPRLLIYKVSNRFSGVPDRFSGSGSGTDFTLKISRVEAEDVGVYYCGQGTQVPYTFGQGTKLEIKR | 9.46 nM
TR01H082-E22Hh/none-Hi-Kn010G3/L0222-k0 (antibody, V domains shown, one-arm) VH: QVQLVESGGGLVQPGRSLRLSCAASGFTFSNAWMHWVRQAPGKGLEWVAQIKDKSQNYATYYAESVKGRFTISRDDSKNSLYLQMNSLKTEDTAVYYCRYVHYAAGYGVDAWGQGTTVTVSS VL: DIVMTQSPLSLPVTPGEPASISCRSSQSPVHSNRNTYIQWYQQKPGQAPRLLIYKVSNRFSGVPDRFSGSGSGTDFTLKISRVEAEDVGVYYCYQGTQVPYTFGQGTKLEIKR | 101 nM
TR01H082-E22Hh/none-Hi-Kn010G3/L0000-k0 (antibody, V domains shown, one-arm) VH: QVQLVESGGGLVQPGRSLRLSCAASGFTFSNAWMHWVRQAPGKGLEWVAQIKDKSQNYATYYAESVKGRFTISRDDSKNSLYLQMNSLKTEDTAVYYCRYVHYAAGYGVDAWGQGTTVTVSS VL: DIVMTQSPLSLPVTPGEPASISCRSSQSLVHSNRNTYLHWYQQKPGQAPRLLIYKVSNRFSGVPDRFSGSGSGTDFTLKISRVEAEDVGVYYCGQGTQVPYTFGQGTKLEIKR | 73.7 nM
TR01H082-E22Hh/none-Hi-Kn010G3/L0212-k0 (antibody, V domains shown, one-arm) VH: QVQLVESGGGLVQPGRSLRLSCAASGFTFSNAWMHWVRQAPGKGLEWVAQIKDKSQNYATYYAESVKGRFTISRDDSKNSLYLQMNSLKTEDTAVYYCRYVHYAAGYGVDAWGQGTTVTVSS VL: DIVMTQSPLSLPVTPGEPASISCRPSQSPVHSNRNTYLHWYQQKPGQAPRLLIYKVSNRFSGVPDRFSGSGSGTDFTLKISRVEAEDVGVYYCYQGTQVPYTFGQGTKLEIKR | 4.75 nM
TR01H081-E22Hh/none-Hi-Kn010G3/L0011-k0 (antibody, V domains shown, one-arm) VH: QVQLVESGGGLVQPGRSLRLSCAASGFTFSNAWMHWVRQAPGKGLEWVAQIKDKSQNYATYYAESVKGRFTISRADSKNSIYLQMNSLKTEDTAVYYCRYVHYAAGYGVDIWGQGTTVTVSS VL: DIVMTQSPLSLPVTPGEPASISCRSSQPLVHSNRNTYLHWYQQKPGQAPRLLIYKVSNRFSGVPDRFSGSGSGTDFTLKISRVEAEDVGVYYCGQGTQVPYTFGQGTKLEIKR | 13.5 nM
TR01H076-E22Hh/none-Hi-Kn010G3/L0000-k0 (antibody, V domains shown, one-arm) VH: QVQLVESGGGVVQPGGSLRLSCAASGFTFSNAWMHWVRQAPGKGLEWVAQIKDKSQNYATYYAESVKGRFTISRADSKNSIYLQMNSLKTEDTAVYYCRYVHYAASYGVDYWGQGTTVTVSS VL: DIVMTQSPLSLPVTPGEPASISCRSSQSLVHSNRNTYLHWYQQKPGQAPRLLIYKVSNRFSGVPDRFSGSGSGTDFTLKISRVEAEDVGVYYCGQGTQVPYTFGQGTKLEIKR | 47.8 nM
TR01H083-E22Hh/none-Hi-Kn010G3/L0011-k0 (antibody, V domains shown, one-arm) VH: QVQLVESGGGLVQPGRSLRLSCAASGFTFSNAWMHWVRQAPGKGLEWVAQIKDKSNNYATYYAESVKGRFTISRADSKNSIYLQMNSLKTEDTAVYYCRYVHYAAGYGVDIWGQGTTVTVSS VL: DIVMTQSPLSLPVTPGEPASISCRSSQPLVHSNRNTYLHWYQQKPGQAPRLLIYKVSNRFSGVPDRFSGSGSGTDFTLKISRVEAEDVGVYYCGQGTQVPYTFGQGTKLEIKR | 6.7 nM
TR01H083-E22Hh/none-Hi-Kn010G3/L0000-k0 (antibody, V domains shown, one-arm) VH: QVQLVESGGGLVQPGRSLRLSCAASGFTFSNAWMHWVRQAPGKGLEWVAQIKDKSNNYATYYAESVKGRFTISRADSKNSIYLQMNSLKTEDTAVYYCRYVHYAAGYGVDIWGQGTTVTVSS VL: DIVMTQSPLSLPVTPGEPASISCRSSQSLVHSNRNTYLHWYQQKPGQAPRLLIYKVSNRFSGVPDRFSGSGSGTDFTLKISRVEAEDVGVYYCGQGTQVPYTFGQGTKLEIKR | 6.83 nM

Results, then the binder that gave them:

Kd | Binder
9.42 nM | TR01H083-E22Hh/none-Hi-Kn010G3/L0222-k0 (antibody, V domains shown, one-arm) VH: QVQLVESGGGLVQPGRSLRLSCAASGFTFSNAWMHWVRQAPGKGLEWVAQIKDKSNNYATYYAESVKGRFTISRADSKNSIYLQMNSLKTEDTAVYYCRYVHYAAGYGVDIWGQGTTVTVSS VL: DIVMTQSPLSLPVTPGEPASISCRSSQSPVHSNRNTYIQWYQQKPGQAPRLLIYKVSNRFSGVPDRFSGSGSGTDFTLKISRVEAEDVGVYYCYQGTQVPYTFGQGTKLEIKR
69.5 nM | TR01H090-E22Hh/none-Hi-Kn010G3/L0011-k0 (antibody, V domains shown, one-arm) VH: QVQLVESGGGLVQPGGSLRLSCAASGFTFSNAWMHWVRQAPGKGLEWVAQIKDKSQNYATYYAESVKGRFTISRDDSKNSLYLQMNSLKTEDTAVYYCRYVHYAAGYGVDAWGQGTTVTVSS VL: DIVMTQSPLSLPVTPGEPASISCRSSQPLVHSNRNTYLHWYQQKPGQAPRLLIYKVSNRFSGVPDRFSGSGSGTDFTLKISRVEAEDVGVYYCGQGTQVPYTFGQGTKLEIKR
4.42 nM | TR01H083-E22Hh/none-Hi-Kn010G3/L0201-k0 (antibody, V domains shown, one-arm) VH: QVQLVESGGGLVQPGRSLRLSCAASGFTFSNAWMHWVRQAPGKGLEWVAQIKDKSNNYATYYAESVKGRFTISRADSKNSIYLQMNSLKTEDTAVYYCRYVHYAAGYGVDIWGQGTTVTVSS VL: DIVMTQSPLSLPVTPGEPASISCRSSQPPVHSNRNTYLHWYQQKPGQAPRLLIYKVSNRFSGVPDRFSGSGSGTDFTLKISRVEAEDVGVYYCGQGTQVPYTFGQGTKLEIKR
66.7 nM | TR01H091-E22Hh/none-Hi-Kn010G3/L0011-k0 (antibody, V domains shown, one-arm) VH: QVQLVESGGGLVQPGRSLKLSCAASGFTFSNAWMHWVRQAPGKGLEWVAQIKDKSQNYATYYAESVKGRFTISRDDSKNSLYLQMNSLKTEDTAVYYCRYVHYAAGYGVDAWGQGTTVTVSS VL: DIVMTQSPLSLPVTPGEPASISCRSSQPLVHSNRNTYLHWYQQKPGQAPRLLIYKVSNRFSGVPDRFSGSGSGTDFTLKISRVEAEDVGVYYCGQGTQVPYTFGQGTKLEIKR
16.5 nM | TR01H084-E22Hh/none-Hi-Kn010G3/L0201-k0 (antibody, V domains shown, one-arm) VH: QVQLVESGGGVVQPGGSLRLSCAASGFTFSNAWMHWVRQAPGKGLEWVAQIKDKSQNYATYYAESVKGRFTISRADSKNSIYLQMNSLKTEDTAVYYCRYVHYAAGYGVDIWGQGTTVTVSS VL: DIVMTQSPLSLPVTPGEPASISCRSSQPPVHSNRNTYLHWYQQKPGQAPRLLIYKVSNRFSGVPDRFSGSGSGTDFTLKISRVEAEDVGVYYCGQGTQVPYTFGQGTKLEIKR
21.3 nM | TR01H084-E22Hh/none-Hi-Kn010G3/L0000-k0 (antibody, V domains shown, one-arm) VH: QVQLVESGGGVVQPGGSLRLSCAASGFTFSNAWMHWVRQAPGKGLEWVAQIKDKSQNYATYYAESVKGRFTISRADSKNSIYLQMNSLKTEDTAVYYCRYVHYAAGYGVDIWGQGTTVTVSS VL: DIVMTQSPLSLPVTPGEPASISCRSSQSLVHSNRNTYLHWYQQKPGQAPRLLIYKVSNRFSGVPDRFSGSGSGTDFTLKISRVEAEDVGVYYCGQGTQVPYTFGQGTKLEIKR
0.0586 nM | TR01H083-E22Hh/none-Hi-Kn010G3/L0212-k0 (antibody, V domains shown, one-arm) VH: QVQLVESGGGLVQPGRSLRLSCAASGFTFSNAWMHWVRQAPGKGLEWVAQIKDKSNNYATYYAESVKGRFTISRADSKNSIYLQMNSLKTEDTAVYYCRYVHYAAGYGVDIWGQGTTVTVSS VL: DIVMTQSPLSLPVTPGEPASISCRPSQSPVHSNRNTYLHWYQQKPGQAPRLLIYKVSNRFSGVPDRFSGSGSGTDFTLKISRVEAEDVGVYYCYQGTQVPYTFGQGTKLEIKR
19.8 nM | TR01H084-E22Hh/none-Hi-Kn010G3/L0011-k0 (antibody, V domains shown, one-arm) VH: QVQLVESGGGVVQPGGSLRLSCAASGFTFSNAWMHWVRQAPGKGLEWVAQIKDKSQNYATYYAESVKGRFTISRADSKNSIYLQMNSLKTEDTAVYYCRYVHYAAGYGVDIWGQGTTVTVSS VL: DIVMTQSPLSLPVTPGEPASISCRSSQPLVHSNRNTYLHWYQQKPGQAPRLLIYKVSNRFSGVPDRFSGSGSGTDFTLKISRVEAEDVGVYYCGQGTQVPYTFGQGTKLEIKR
